Publication PMC3369541 (Methods in Molecular Biology (Clifton, N.j.), 2012)

Molecular target: T1, FUS1 peptide (wild-type PDZ protein-binding motif)
T1 peptide: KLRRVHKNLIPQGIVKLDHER
Test: ProteinChip array with SELDI-TOF mass spectrometry

binding result: binds
Binder: LGILYILQTLE [Apaf1 peptide (PDZ protein-binding motif)]
